Data: article PMC8906542
Changes are numbered by the printed parent chain.

Columns and labels:
Assay in all cases: fluorescence polarization
[1] = target: T1, ErmE R163E (Saccharopolyspora erythraea, UniProt P07287 1-381, R163E)
T1 sequence: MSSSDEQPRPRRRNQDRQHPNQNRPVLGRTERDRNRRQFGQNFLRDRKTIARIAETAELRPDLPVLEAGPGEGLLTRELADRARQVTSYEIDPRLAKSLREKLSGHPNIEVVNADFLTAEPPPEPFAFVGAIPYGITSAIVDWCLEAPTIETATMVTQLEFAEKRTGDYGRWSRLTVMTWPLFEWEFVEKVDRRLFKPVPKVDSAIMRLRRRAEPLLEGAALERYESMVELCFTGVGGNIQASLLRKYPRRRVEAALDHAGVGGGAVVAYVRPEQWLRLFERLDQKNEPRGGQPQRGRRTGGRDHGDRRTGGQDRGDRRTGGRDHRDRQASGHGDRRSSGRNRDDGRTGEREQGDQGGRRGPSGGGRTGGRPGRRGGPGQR

[2] = target: T2, ErmE R165A (Saccharopolyspora erythraea, UniProt P07287 1-381, R165A)
T2 sequence: T1 sequence with E163R, R165A

[3] = target: T3, ErmE E160W (Saccharopolyspora erythraea, UniProt P07287 1-381, E160W)
T3 sequence: T1 sequence with E160W, E163R

[4] = target: T4, ErmE K164S (Saccharopolyspora erythraea, UniProt P07287 1-381, K164S)
T4 sequence: T1 sequence with E163R, K164S

[5] = target: T5, ErmE K164M (Saccharopolyspora erythraea, UniProt P07287 1-381, K164M)
T5 sequence: T1 sequence with E163R, K164M

[6] = target: T6, ErmE E160A (Saccharopolyspora erythraea, UniProt P07287 1-381, E160A)
T6 sequence: T1 sequence with E160A, E163R

In the case of GGCCUGCGGCAAGACGGAAAGACCAUGGUCCCUAUCUGCCGCAGGAUC (structured_RNA) [V48 Erm substrate (23S rRNA helix 73 mimic, 48 nt)], the Kd [1] is reported as 3.7 µM, the Kd [2] is reported as 0.49 ± 0.05 µM and the binding signal [3] is reported as about 4 fold Kd increase vs wt. GGCCUGCGGCAAGACGGAAAGACCAUGGUCCCUAUCUGCCGCAGGAUC (structured_RNA) [V48 Erm substrate (23S rRNA helix 73 mimic, 48 nt)]: binds [4]; binds [5]; binds [6].
